In one assay the test system is MDA-MB-231 cells. Put plainly: ORIS cell migration (motility) assay. The format is cell-based, human. The procedure: Cell motility assays utilized the Platypus Technologies ORIS™ cell migration assay platform, which is generally described at platypustech.com/discoverAssay.html.
Specifically, the filamin-A antibodies of the present disclosure were evaluated in the ORIS™ cell migration assay, which used tri-coated 96 well plates (Platypus #CMATR1.101). Cells were seeded at approximately 50,000 cells/well. Cells were incubated overnight at 37° C. without CO2 in DMEM, in the case of HEK-293 cells, or L-15 containing 10% FBS, in the case of MDA-MB-231 cells. Stoppers covering cell growth chambers were removed with the ORIS™ stopper tool, growth media was removed, and wells were gently washed with 100 microliters of sterile PBS. Stoppers were left in place in reference wells until the staining step to serve as pre-migration controls. After washing, a 100 microliter volume of fresh culture media containing the specific treatment was added to each well. The cells were then allowed to incubate overnight. At the end of the incubation period, cells were fluorescently stained with Calcein AM for 30 minutes. Fluorescence was then measured using a microplate reader with a Detection Mask in place.
FIGS. 1 and 2 depict the relative fluorescence units (RFUs) present in the detection zones for each condition (mean+/−S.D., n=2 wells/condition).
Wells containing the cells existed in three formats: coated with collagen, coated with fibronectin, or a tissue culture (TC) treatment.
Well treatments were as follows: no antibody control, mouse antibody (mAb FLNA 1 mcg/ml), mouse antibody (mAb FLNA 20 mcg/ml), human chimeric antibody (hAb FLNA 1 mcg/ml), human chimeric antibody (hAb FLNA 20 mcg/ml), apicdin (100 nM), cytochalasin B (30 micromolar); see FIG. 1. An increase in the number of RFUs correlates with an increase in cellular motility.

The subject of another assay is filamin-A. Put plainly: Immunofluorescence assays with MDA-MB-231 breast cancer cell line. Type of assay: cell-based, human. How it is done: Characterization of the filamin-A mAbs was performed using immunofluorescence assays with the MDA-MB-231 breast cancer cell line. […] For comparison, the AHO1402 mAb and another commercially available mAb, TI10 (Millipore MAB1680-C), were assayed at the same time.
The primary antibodies utilized in the immunofluorescence assays were as follows: • Anti-Filamin-A, clone TI10 (Millipore, p/n MAB1680-C) • Anti-Filamin-A, clone 209 #13 (Life Technologies, p/n AHO1402) • Anti-Filamin-A, mouse mAb • Anti-Filamin-A, human chimeric mAb • Anti-beta Actin, rabbit polyclonal (Rockland, p/n 600-401-886S)
Two primary methods of Immunofluorescence staining were utilized. The first method comprises single staining or double staining with methanol as a fixative and 0.2% Triton as a permeabilization agent, which is described in Alper et al. 2009. The second method utilizes a double staining technique with 2% paraformaldehyde as a fixative and 0.2% triton as a permeabilization agent.
Primary antibodies were incubated with the fixed and permeabilized cells for 1 hour at room temperature at a concentration of 1.25 mcg/ml. After one or more wash steps, secondary antibodies were incubated with the cells for 1 hour at room temperature. […]

Assay [1] deals with T1, surface filamin A on SKNAS (human neuroblastoma) cell line (Homo sapiens, UniProt P21333).
T1 construct: endogenous in cells; host or cells: SKNAS
T1 sequence (P21333 whole entry): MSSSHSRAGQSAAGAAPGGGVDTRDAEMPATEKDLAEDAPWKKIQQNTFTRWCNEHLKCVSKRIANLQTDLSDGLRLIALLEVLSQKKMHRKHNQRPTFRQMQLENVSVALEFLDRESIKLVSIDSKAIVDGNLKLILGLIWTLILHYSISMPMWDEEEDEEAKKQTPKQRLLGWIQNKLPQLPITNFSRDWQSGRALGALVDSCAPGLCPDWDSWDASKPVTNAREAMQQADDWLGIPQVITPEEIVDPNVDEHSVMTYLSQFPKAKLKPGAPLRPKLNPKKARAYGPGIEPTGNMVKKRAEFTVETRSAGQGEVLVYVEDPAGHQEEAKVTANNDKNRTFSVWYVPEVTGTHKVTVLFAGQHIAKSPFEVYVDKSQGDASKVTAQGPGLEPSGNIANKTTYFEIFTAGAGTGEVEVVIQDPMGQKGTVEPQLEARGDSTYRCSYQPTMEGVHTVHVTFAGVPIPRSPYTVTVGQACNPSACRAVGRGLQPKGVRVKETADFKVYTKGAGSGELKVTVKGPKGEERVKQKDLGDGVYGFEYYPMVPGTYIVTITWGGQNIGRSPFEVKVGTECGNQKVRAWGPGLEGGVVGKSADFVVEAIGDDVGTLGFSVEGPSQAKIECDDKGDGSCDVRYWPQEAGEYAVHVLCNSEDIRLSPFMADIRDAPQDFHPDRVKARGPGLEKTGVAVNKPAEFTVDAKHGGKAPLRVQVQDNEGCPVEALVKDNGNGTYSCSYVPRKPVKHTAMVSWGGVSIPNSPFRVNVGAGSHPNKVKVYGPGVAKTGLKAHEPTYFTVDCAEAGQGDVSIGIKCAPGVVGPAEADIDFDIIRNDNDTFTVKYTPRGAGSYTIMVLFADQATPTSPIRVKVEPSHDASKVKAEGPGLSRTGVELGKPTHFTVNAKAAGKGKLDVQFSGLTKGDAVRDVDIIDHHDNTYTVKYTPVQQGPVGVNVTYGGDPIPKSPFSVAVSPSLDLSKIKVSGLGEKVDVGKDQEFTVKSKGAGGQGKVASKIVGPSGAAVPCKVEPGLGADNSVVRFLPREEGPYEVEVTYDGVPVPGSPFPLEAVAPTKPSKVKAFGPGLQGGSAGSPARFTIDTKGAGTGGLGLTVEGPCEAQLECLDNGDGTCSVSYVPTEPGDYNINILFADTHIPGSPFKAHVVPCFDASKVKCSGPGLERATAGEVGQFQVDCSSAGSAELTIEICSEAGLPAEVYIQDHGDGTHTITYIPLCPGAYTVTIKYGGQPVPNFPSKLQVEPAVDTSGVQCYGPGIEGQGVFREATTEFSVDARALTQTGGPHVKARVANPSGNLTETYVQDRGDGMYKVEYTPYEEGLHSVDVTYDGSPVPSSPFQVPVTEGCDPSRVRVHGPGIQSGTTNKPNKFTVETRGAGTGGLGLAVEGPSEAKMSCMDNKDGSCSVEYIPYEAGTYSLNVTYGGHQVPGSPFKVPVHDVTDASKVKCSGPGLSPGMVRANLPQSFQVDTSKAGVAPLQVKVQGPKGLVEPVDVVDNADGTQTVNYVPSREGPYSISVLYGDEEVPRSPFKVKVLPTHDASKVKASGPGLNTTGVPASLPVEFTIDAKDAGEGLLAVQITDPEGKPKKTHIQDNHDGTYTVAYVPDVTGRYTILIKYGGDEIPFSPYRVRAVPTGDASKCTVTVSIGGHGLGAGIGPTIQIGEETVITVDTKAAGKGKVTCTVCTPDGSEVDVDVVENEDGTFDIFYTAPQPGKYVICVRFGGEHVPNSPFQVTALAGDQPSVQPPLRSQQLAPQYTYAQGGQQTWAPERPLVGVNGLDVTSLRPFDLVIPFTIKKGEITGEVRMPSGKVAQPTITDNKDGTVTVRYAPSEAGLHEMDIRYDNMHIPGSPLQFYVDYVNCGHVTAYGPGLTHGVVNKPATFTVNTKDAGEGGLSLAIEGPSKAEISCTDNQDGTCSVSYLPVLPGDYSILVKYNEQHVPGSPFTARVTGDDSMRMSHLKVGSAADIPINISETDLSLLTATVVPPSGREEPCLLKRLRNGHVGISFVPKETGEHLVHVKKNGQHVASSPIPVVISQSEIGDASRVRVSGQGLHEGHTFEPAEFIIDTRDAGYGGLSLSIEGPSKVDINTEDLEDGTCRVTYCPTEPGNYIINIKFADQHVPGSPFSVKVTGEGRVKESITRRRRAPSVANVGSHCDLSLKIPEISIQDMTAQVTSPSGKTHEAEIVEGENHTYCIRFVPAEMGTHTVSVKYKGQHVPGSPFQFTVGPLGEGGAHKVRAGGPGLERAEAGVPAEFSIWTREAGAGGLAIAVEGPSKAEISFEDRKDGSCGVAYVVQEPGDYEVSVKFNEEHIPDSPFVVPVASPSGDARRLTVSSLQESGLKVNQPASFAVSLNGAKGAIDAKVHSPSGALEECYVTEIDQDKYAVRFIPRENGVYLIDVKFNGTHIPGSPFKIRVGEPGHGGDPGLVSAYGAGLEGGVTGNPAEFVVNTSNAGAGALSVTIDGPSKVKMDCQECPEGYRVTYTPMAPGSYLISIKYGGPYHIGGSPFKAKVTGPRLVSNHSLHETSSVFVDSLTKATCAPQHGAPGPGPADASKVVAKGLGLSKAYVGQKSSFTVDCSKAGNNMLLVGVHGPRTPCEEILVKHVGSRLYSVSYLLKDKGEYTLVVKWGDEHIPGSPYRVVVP
Put plainly: B411 surface staining by flow cytometry. Type of assay: binding. The note with it: 2 μg primary antibody, 1 hour on ice. How it is done: (§1) B411 surface staining on several different cell types was conducted. Cells were plated at a concentration of 0.5-1.0 million cells per well, and incubated overnight. Cells were then lifted from the wells, washed, and resuspended in flow cytometry media with 2 μg of primary antibody for 1 hour on ice. Cells were washed and incubated with the secondary antibody (5 μg/ml) for 30 minutes on ice. Cells were washed again and analyzed by flow cytometry.
On the technique in general: Flow cytometry measures light scatter and fluorescence of single cells or particles in a stream.

The target in assay [2] is T2, surface filamin A on HeLa cells (Homo sapiens, UniProt P21333).
T2 construct: endogenous in cells; host or cells: HeLa
T2 sequence (P21333 whole entry): as above
The experiment in a line: B411 surface staining by flow cytometry. Type of assay: binding. Particulars: 2 μg primary antibody, 1 hour on ice. The procedure: as §1

The target in assay [3] is T3, surface filamin A on SKBR3 (breast adenocarcinoma) cell line (Homo sapiens, UniProt P21333).
T3 construct: endogenous in cells; host or cells: SKBR3
T3 sequence (P21333 whole entry): as above
Put plainly: B411 surface staining by flow cytometry. Type of assay: binding. Particulars: 2 μg primary antibody, 1 hour on ice. The procedure: as §1

In assay [4] the target is T4, surface filamin A on SKOV3 cell line (ovarian cancer) (Homo sapiens, UniProt P21333).
T4 construct: endogenous in cells; host or cells: SKOV3
T4 sequence (P21333 whole entry): as above
The experiment in a line: B411 surface staining by flow cytometry. Type of assay: binding. The note with it: 2 μg primary antibody, 1 hour on ice. How it is done: as §1

Assay [5] has as its system MDA-MB-231 breast cancer cells. Put plainly: ORIS cell migration assay with Calcein AM / propidium iodide / Hoechst 33342 staining. The format is cell-based, human. Particulars: overnight incubation with antibody versus buffer control. How it is done: Additional cell assays were carried out using the B411 antibody and the breast cancer cell lines MDA-MB-231 and SKBR3. Specifically, the filamin-A antibody B411 was evaluated in the ORIS™ cell migration assay, which used tri-coated 96 well plates (Platypus #CMATR1.101). Cells were seeded at approximately 25,000 or 50,000 cells/well. Cells were incubated overnight at 37° C., CO2, McCoy's in the case of SKBR3 cells, or L-15 containing 10% FBS, without CO2 in the case of MDA-MB-231 cells. Stoppers covering cell growth and migration zones were removed with the ORIS™ stopper tool, growth media was removed, and wells gently washed with 100 microliters of sterile PBS. Stoppers were left in place in reference wells until the staining step to serve as no-migration controls. After washing, a 100 microliter volume of fresh culture media containing the specific treatment was added to each well. The cells were then allowed to incubate overnight. At the end of the incubation period, cells were fluorescently stained as follows: • Carefully remove remaining culture medium from wells and wash with 100 μL of PBS. […] Fluorescence was then measured using a microplate reader with a Detection Mask in place. • Carefully remove Calcein AM and wash with 100 μL of PBS. […] Incubate 5-10 min at room temperature. • Take a fluorescence image (blue, green and red channels) of a representative well(s) using 5× magnification.

The test system of assay [6] is SKBR3 cells (breast adenocarcinoma). The experiment in a line: Endocytosis assay (Zenon pHrodo labelled antibody, flow cytometry). The format is cell-based, human. The note with it: 12 μg/mL labelled antibody; 24 hours, 37° C. The procedure: Experiments were conducted to determine if antibody B411 is endocytosed by cells. 250,000 cells/well were plated and incubated overnight at 37° C., 5% CO2. 12 μg/mL of antibodies were labelled with Zenon pHrodo kit (human green) according to the manufacturer's protocol for 5 minutes at room temperature, in the dark. The plated cells were then incubated with the labeled antibodies for 24 hours, at 37° C., 5% CO2. Cells were then lifted by manual scraping, and washed prior to analysis by flow cytometry.

Assay [7] deals with DU145 (human prostate cancer cell line). The experiment in a line: CellCountzEZ Cell Survival Assay. The note with it: for ratio of inhibition: dose not restated in b354 (10 μg). Type of assay: cell-based. The procedure: (§2) A study was conducted to assess cell survival following incubation with antibody B411. DU145 (human prostate cancer cell line) and HEK293A (human embryonic kidney cell line) cells were seeded on 96-well plates (10^4 cells/well) and incubated for 4 hours at 37° C. 1 μg or 10 μg B411 (endotoxin removed, 1.2 EU/mL) was added to the wells and incubated for 24 or 48 hours. An untreated group for both cell types was also included. Cell survival was detected using CellCountzEZ™ Cell Survival Assay kit and results were determined by reading OD412 with a reference to OD650.

For assay [8], the system named is HEK293A (human embryonic kidney cell line). Put plainly: CellCountzEZ Cell Survival Assay. The format is cell-based. The note with it: for ratio of inhibition: dose not restated in b354 (10 μg). How it is done: as §2

Residue numbers refer to the chain shown, from its start. “Also recorded” adds a separate entry of the source.

As for `C=C1[C@@H](C)[C@H]2[C@H](Cc3ccccc3)NC(=O)[C@]23OC(=O)/C=C/[C@H](O)CCC[C@@H](C)C/C=C/[C@H]3[C@@H]1O` [cytochalasin B, reference compound], in the assay on MDA-MB-231 cells (tissue culture (TC) treatment wells, no coating), the “effect on cell migration” value is recorded as “little effect across treatments with the exception of cytochalasin B”.

B1: murine antibody: recombinant mouse anti-filamin-A mAb of the disclosure (mouse antibody B186); mouse VL SEQ ID NO:22, VH SEQ ID NO:24 (antibody, listed as Mus sp., V domains shown)
VH: EVKLVESGGGLVQPGGSLKLSCAASGFTFSSYTMSWVRQTPEKRLEWVAYISNGGGSTYYPDTVKGRFTISRDNAKNTLYLQMSSLKSEDTAMYYCASDGLLRPFAYWGQGTLVTVSA
VL: DIVMTQSHKFMSTSVGDRVSITCKASQDVSIDVAWYQQKPGQSPKLLIYSASHRYTGVPDRFTGSGSGTDFTFTISGVQAEDLAVYFCQQHYSTPLTFGAGTKLELK
Take B1: the immunofluorescence staining pattern entry is reported as “punctate staining pattern” in the assay with filamin-A (MDA-MB-231 cells, primary antibody 1.25 mcg/ml) and “reproduced the punctuate staining pattern” with filamin-A (first method: methanol fixative, 0.2% Triton permeabilization). Also, the “effect on cell motility” value in the assay on MDA-MB-231 cells (collagen coated wells) is “no considerable differences”. For the same molecule, the “effect on cell migration” value in the assay on MDA-MB-231 cells (collagen treated wells, 1 μg/mL) is “did not lead to a reduction in cell migration”. Further, the “effect on cell motility / cell migration” value is reported as “decreases in cell motility” in the assay on MDA-MB-231 cells (fibronectin coated wells, 1 μg/mL) and “less of a reduction” with MDA-MB-231 cells (fibronectin coated wells, 1 μg/mL, listed as murine mAbs). In addition, in the assay on MDA-MB-231 cells (fibronectin coated wells, antibody 1 μg/mL, overnight incubation), the “cell motility (relative fluorescence units in detection zone)” value worked out at 191.34 RFU.

B2: B411: anti-filamin-A human chimeric antibody, light chain variable region SEQ ID NO:2, heavy chain variable region SEQ ID NO:7 (antibody, V domains shown)
VH: B1 VH with L101I, L102I
VL: B1 VL with I31L
modifications: VH domain of mAbs B407 and B411; human chimeric mAb VL domain of mAbs B408, B409, B410, and B411
Turning to B2, the surface staining entry in assay [1] is listed as “Highly Positive staining”; in assay [2], “Highly Positive staining”; in [3] it was “some positive staining; also recorded: weaker compared to the other cell lines tested”; in [4] it was “Highly Positive staining”. The “Calcein AM staining (metabolic activity)” value in assay [5] is listed as “more variability in Calcein AM staining”. Also, in assay [5], the “Hoechst 33342 staining (apoptosis-like phenotype)” value is listed as “increase in Hoechst 33342 staining”. Moreover, the endocytosis of antibody result in [6] is “detected”. For the same molecule, the “number of cells positive for endocytosis, SKBR3 compared to HEK (non-cancer) cells” value in [6] is “More SKBR3 cells were positive for B411 than HEK cells”. Moreover, the “inhibition effect on proliferation versus untreated group” value in assay [7] (1 μg dosing, 24 h) is “significant inhibition effect on proliferation”; in assay [7] (1 μg dosing, 48 h), “no statistically significant effect”; in assay [7] (10 μg dosing, 24 h and 48 h), “significant inhibition effects on proliferation”. For the same molecule, the “cell proliferation (OD412 with reference to OD650)” value in assay [7] (1 μg or 10 μg, 24 or 48 hours, overall statement) is on record as “inhibits DU145 (cancer) cell proliferation”. The ratio of inhibition is listed as 7.8% in assay [7] (24 h), 14.6% in assay [7] (48 h), 9.3% in [8] (24 h) and 17.7% in assay [8] (48 h). In addition, the “effect on cell proliferation” value in assay [8] (1 μg dose, 24 h or 48 h) was “did not have an effect”. Further, the “inhibition of cell proliferation” value in [8] (10 μg) is on record as “Inhibition of HEK293 cell proliferation was also observed”.

Values taken from patent publication US12173057B2, “Antibodies and therapeutic uses thereof” (Ibex Biosciences, Inc., priority 2018, dated 2024).
